Results from US20220387586A1 (Hoffmann-La Roche, published 2022).

What was measured:
[1] = target: T1, recombinant Human LAG-3 Fc Chimera Protein (R&D Systems, 2319-L3) (human, UniProt P18627 29-450); test: ELISA on coated Human LAG-3 Fc Chimera (rel. EC50)
T1 construct: Bought protein; also called huLAG3; not shown: Fc part of the chimera
T1 sequence: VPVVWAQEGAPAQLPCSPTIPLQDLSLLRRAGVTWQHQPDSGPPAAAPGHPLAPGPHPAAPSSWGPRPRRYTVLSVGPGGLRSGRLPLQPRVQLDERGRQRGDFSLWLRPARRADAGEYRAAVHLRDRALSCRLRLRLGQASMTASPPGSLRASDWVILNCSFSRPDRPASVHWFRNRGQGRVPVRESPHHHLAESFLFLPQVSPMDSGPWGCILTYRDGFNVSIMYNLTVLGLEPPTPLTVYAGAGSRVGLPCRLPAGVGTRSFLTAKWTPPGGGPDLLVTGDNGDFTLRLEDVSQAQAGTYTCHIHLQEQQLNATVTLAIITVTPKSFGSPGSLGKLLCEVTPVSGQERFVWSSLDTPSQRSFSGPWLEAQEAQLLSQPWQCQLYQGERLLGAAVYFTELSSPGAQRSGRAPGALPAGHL
Procedure: After washing (3×90 μl/well with PBST-buffer) each well was incubated with 90 μl blocking buffer (PBS+2% BSA+0.05% Tween 20) for 1 h at room temperature. […] After washing (3×90 μl/well with PBST-buffer) 25 μl/well goat anti-Human Ig κ chain antibody-HRP conjugate (Milipore, AP502P) was added in a 1:2000 dilution and incubated at RT for 1 h. After washing (3×90 μl/well with PBST-buffer) 25 μl/well TMB substrate (Roche, 11835033001) was added and incubated for 2-10 min. Measurement took place on a Tecan Safire 2 instrument at 370/492 nm.

biotinylated-Lag3 = target: T2, biotinylated-Lag3 (UniProt P18627 23-450, limits assumed, biotinylated); test: ELISA, inhibition of biotinylated-Lag3 binding to MHC-II on A375 cells (competitor MHC-II)
T2 construct: Probably a human LAG3 ECD construct; also called Lag3 (MHCII/ELISA)
T2 sequence (looked up): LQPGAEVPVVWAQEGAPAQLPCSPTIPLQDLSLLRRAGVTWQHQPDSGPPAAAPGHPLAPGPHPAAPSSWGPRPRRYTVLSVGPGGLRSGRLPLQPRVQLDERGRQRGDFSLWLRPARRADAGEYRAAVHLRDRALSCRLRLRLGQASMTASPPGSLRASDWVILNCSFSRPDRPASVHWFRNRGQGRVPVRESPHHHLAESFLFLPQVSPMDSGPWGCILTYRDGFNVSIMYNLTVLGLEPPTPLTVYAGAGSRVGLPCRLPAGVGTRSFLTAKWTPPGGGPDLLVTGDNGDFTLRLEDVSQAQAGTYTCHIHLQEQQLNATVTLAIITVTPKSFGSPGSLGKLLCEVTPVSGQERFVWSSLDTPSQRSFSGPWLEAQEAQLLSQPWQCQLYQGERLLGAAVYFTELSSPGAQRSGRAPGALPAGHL
Procedure: 25 μl/well of A375 cells (10000 cells/well) were seeded into tissue culture treated 384-well plates (Corning, 3701) and incubated at 37° C. overnight. […] After washing (1×90 μl in PBST) cells were fixed by addition of 30 μl/well glutaraldehyde to a final concentration of 0.05% (Sigma Cat.No: G5882), 10 min at room temperature. After washing (3×90 μl/well with PBST-buffer) 25 μl/well Poly-HRP40-Streptavidin (Fitzgerald, 65R-S104PHRPx) was added in a 1:2000 or 1:8000 dilution and incubated at RT for 1 h. After washing (3×90 μl/well with PBST-buffer) 25 μl/well TMB substrate (Roche, 11835033001) was added and incubated for 2 to 10 min. Measurement took place on a Tecan Safire 2 instrument at 370/492 nm.

[2] = target: T3, biotinylated PD1-ECD-AviHis (human, UniProt Q15116 25-170, biotinylated); test: ELISA on coated biotinylated PD1-ECD-AviHis (rel. EC50)
T3 construct: also called huPD1; hu PD1; not shown: Avi-His tag
T3 sequence (Q15116 25-170): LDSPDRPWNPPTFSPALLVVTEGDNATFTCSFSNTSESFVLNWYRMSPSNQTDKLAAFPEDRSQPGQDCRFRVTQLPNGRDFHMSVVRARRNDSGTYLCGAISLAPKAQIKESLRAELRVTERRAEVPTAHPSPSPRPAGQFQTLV
Procedure: After washing (3×90 μl/well with PBST-buffer) 25 μl/well goat-anti-human H+L-POD (JIR, JIR109-036-098) was added in 1:5000 dilution and incubated at RT for 1 h on a shaker. After washing (3×90 μl/well with PBST-buffer) 25 μl/well of TMB substrate (Roche, 11835033001) was added and incubated until OD 2-3. Measurement took place at 370/492 nm.

[3] = target: T4, LAG3 on cells (recombinant CHO cells expressing Lag3) (human, UniProt P18627 29-525); test: cell ELISA on recombinant CHO cells expressing Lag3 (rel. EC50)
T4 construct: The cell ELISA paragraphs say only 'Lag3'; also called CHO-LAG3; Lag3 cells
T4 sequence: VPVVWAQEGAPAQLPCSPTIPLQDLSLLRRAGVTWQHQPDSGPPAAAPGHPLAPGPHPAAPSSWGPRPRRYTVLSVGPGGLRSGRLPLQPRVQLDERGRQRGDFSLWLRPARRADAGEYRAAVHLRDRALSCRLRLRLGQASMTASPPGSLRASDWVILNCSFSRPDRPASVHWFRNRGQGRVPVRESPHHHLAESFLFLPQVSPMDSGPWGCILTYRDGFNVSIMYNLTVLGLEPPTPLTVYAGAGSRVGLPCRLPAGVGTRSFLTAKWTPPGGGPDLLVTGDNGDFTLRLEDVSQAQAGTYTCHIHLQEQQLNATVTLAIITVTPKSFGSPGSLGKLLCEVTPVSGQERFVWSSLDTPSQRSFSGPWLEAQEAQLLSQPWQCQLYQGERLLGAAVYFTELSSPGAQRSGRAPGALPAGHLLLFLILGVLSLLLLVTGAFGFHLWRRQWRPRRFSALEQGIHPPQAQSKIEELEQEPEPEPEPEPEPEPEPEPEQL
Procedure: After washing (1×90 μl in PBST) cells were fixed by addition of 30 μl/well glutaraldehyde to a final concentration of 0.05% (Sigma Cat.No: G5882), 10 min at room temperature. After washing (3×90 μl/well with PBST-buffer) 25 μl/well goat anti-Human Ig κ chain antibody-HRP conjugate (Milipore, AP502P) was added in a 1:1000 dilution and incubated at RT for 1 h. After washing (3×90 μl/well with PBST-buffer) 25 μl/well TMB substrate (Roche, 11835033001) was added and incubated for 6-10 min. Measurement took place on a Tecan Safire 2 instrument at 370/492 nm.

[4] = target: T5, full-length human PD1 on cells (human, UniProt Q15116 25-288); test: cell ELISA on CHO-K1 cells expressing full-length human PD1 (rel. EC50)
T5 construct: also called CHO-PD1
T5 sequence (Q15116 25-288 limits assumed): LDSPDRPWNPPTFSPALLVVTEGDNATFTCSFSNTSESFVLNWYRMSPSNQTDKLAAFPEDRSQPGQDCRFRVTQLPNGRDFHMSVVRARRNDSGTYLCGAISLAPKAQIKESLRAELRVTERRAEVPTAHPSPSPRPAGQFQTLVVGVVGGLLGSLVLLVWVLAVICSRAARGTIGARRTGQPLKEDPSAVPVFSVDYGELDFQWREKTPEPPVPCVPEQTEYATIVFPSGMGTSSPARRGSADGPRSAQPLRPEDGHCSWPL
Procedure: (to avoid internalization). After washing carefully (1×90 μl/well PBST) cells were fixed by adding 30 μl/well 0.05% Glutaraldehyde (Sigma, Cat.No: G5882, 25%) diluted in 1×PBS-buffer and incubated for 10 min at RT. After washing (3×90 μl/well PBST) 25 μl/well secondary antibody was added for detection: goat-anti-human H+L-POD (JIR, JIR109-036-088)/Sheep-anti-mouse-POD (GE NA9310) followed by 1 h incubation at RT on shaker. After washing (3×90 μl/well PBST) 25 μl/well TMB substrate solution (Roche 11835033001) was added and incubated until OD 1.0-2.0. Plates were measured at 370/492 nm.

[5] = target: T6, LAG3 on PD1+LAG3+ human U2OS cells (Homo sapiens (Human), UniProt P18627 23-525); test: cellular PD1/LAG3 dimerization assay on PD1+LAG3+ U2OS cells, chemoluminescence; the signal needs PD1 and LAG3 bound at once
T6 construct: also called cellular LAG3 (dimerization assay); not shown: subunit of the reporter enzyme fused to the cytosolic C-terminus
T6 sequence: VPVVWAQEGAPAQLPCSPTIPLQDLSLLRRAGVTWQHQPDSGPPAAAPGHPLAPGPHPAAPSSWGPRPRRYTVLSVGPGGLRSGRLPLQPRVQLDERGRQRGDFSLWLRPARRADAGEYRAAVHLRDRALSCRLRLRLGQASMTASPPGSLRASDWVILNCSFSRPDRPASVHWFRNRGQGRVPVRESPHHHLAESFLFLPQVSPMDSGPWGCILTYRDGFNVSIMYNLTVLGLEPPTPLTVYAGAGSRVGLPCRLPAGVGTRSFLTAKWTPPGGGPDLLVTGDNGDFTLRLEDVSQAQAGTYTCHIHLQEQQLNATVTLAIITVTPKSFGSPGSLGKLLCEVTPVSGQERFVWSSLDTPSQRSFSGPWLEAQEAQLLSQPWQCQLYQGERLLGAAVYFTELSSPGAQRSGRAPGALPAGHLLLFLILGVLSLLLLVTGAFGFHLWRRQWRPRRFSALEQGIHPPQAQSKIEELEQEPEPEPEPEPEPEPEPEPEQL
Procedure: (§1) For this specific interaction, the cytosolic C-terminal ends of both receptors were individually fused to heterologous subunits of a reporter enzyme.
(§2) On the next day cell medium was discarded and replaced by fresh medium. Antibody or ligand dilutions were prepared and titrated amounts of indicated (bispecific) antibodies were added and incubated at 37° C. for 2 hours. Next, a substrate/buffer mix (e.g. PathHunterFlash detection reagent) was added and again incubated for 1h. For measuring chemoluminescence induced upon simultaneous binding and dimerization a Tecan infinite reader was used.

[6] = target: T7, PD1 on PD1+LAG3+ human U2OS cells (UniProt Q15116 25-288); test: as above
T7 sequence (Q15116 25-288): as the sequence (Q15116 25-288 limits assumed) above
Procedure: as §1, §2

[7] = target: T5, full-length human PD1 on cells; test: cell-based or functional assay
[8] = target: T4, LAG3 on cells (recombinant CHO cells …); test: cell-based or functional assay
[9] = target: T7, PD1 on PD1+LAG3+ human U2OS cells; test: cellular PD1/LAG3 dimerization assay, 7500 PD1+LAG3+ U2OS cells a well, 20 h at 37 °C, chemoluminescence; the signal needs PD1 and LAG3 bound at once
Procedure: Next, assay plates were equilibrated to room temperature and a substrate/buffer mix (PathHunterFlash detection reagent, Discoverx) was added and again incubated for 4h. For measuring chemoluminescence induced upon simultaneous binding and dimerization a SpectraMax L plate reader (Molecular Devices) was used.

B1: PD1/LAG3 1252 (bispecific antibody, human IgG1, kappa, L234A L235A)
heavy 1: not shown
heavy 2: QVQLQQWGAGLLKPSETLSLTCAVYGGSFSDYYWNWIRQPPGKGLEWIGEINHNGNTNSNPSLKSRVTLSLDTSKNQFSLKLRSVTAADTAVYYCAFGYSDYEYNWFDPWGQGTLVTVSSASTKGPSVFPLAPSSKSTSGGTAALGCLVEDYFPEPVTVSWNSGALTSGVHTFPAVLQSSGLYSLSSVVTVPSSSLGTQTYICNVNHKPSNTKVDEKVEPKSCDKTHTCPPCPAPEAAGGPSVFLFPPKPKDTLMISRTPEVTCVVVDVSHEDPEVKFNWYVDGVEVHNAKTKPREEQYNSTYRVVSVLTVLHQDWLNGKEYKCKVSNKALGAPIEKTISKAKGQPREPQVCTLPPSRDELTKNQVSLSCAVKGFYPSDIAVEWESNGQPENNYKTTPPVLDSDGSFFLVSKLTVDKSRWQQGNVFSCSVMHEALHNHYTQKSLSLSPGK
light 1: DIVMTQSPDSLAVSLGERATINCKASESVDTSDNSFIHWYQQKPGQSPKLLIYRSSTLESGVPDRFSGSGSGTDFTLTISSLQAEDVAVYYCQQNYDVPWTFGQGTKVEIKSSASTKGPSVFPLAPSSKSTSGGTAALGCLVKDYFPEPVTVSWNSGALTSGVHTFPAVLQSSGLYSLSSVVTVPSSSLGTQTYICNVNHKPSNTKVDKKVEPKSC
light 2: not shown
notes: 2+1 format: two LAG3 Fabs, one PD1 crossFab fused to the C-terminus of the Fc knob heavy chain
Work on B1 yielded an EC50 [1] of 0.02 nM, an IC50 (biotinylated-Lag3) of 0.47 nM and an EC50 [2] of 0.03 nM. The EC50 [3] was 0.64 nM, the EC50 [4] was 0.31 nM and the “EC50 (read off the curve)” value [5] was about 0.06 µg/mL. The “EC50 (read off the curve)” value [6] was about 0.06 µg/mL.

B2: PD1/LAG3 0725 (bispecific antibody, human IgG1, kappa, L234A L235A)
heavy 1: not shown
heavy 2: DKTHTCPPCPAPEAAGGPSVFLFPPKPKDTLMISRTPEVTCVVVDVSHEDPEVKFNWYVDGVEVHNAKTKPREEQYNSTYRVVSVLTVLHQDWLNGKEYKCKVSNKALGAPIEKTISKAKGQPREPQVCTLPPSRDELTKNQVSLSCAVKGFYPSDIAVEWESNGQPENNYKTTPPVLDSDGSFFLVSKLTVDKSRWQQGNVFSCSVMHEALHNHYTQKSLSLSPGKGGGGSGGGGSEVQLLESGGGLVQPGGSLRLSCAASGFIFDDYTMNWVRQAPGKGLEWVAVISWDGGGTYYTDSVKGRFTISRDDFKNTLYLQMNSLRAEDTAVYYCAKGLTDTTLYGSDYWGQGTLVTVSSASTKGPSVFPLAPSSKSTSGGTAALGCLVEDYFPEPVTVSWNSGALTSGVHTFPAVLQSSGLYSLSSVVTVPSSSLGTQTYICNVNHKPSNTKVDEKVEPKSC
light 1: EVQLLESGGGLVQPGGSLRLSCAASGFSFSSYTMSWVRQAPGKGLEWVATISGGGRDIYYPDSVKGRFTISRDNSKNTLYLQMNSLRAEDTAVYYCVLLTGRVYFALDSWGQGTLVTVSSASVAAPSVFIFPPSDEQLKSGTASVVCLLNNFYPREAKVQWKVDNALQSGNSQESVTEQDSKDSTYSLSSTLTLSKADYEKHKVYACEVTHQGLSSPVTKSFNRGEC
light 2: not shown
notes: 1+1 trans format: LAG3 Fab fused to the C-terminus of the Fc hole chain
B2 was tested, and the “EC50 [nM], PD-1 & LAG-3 combo reporter assay (NFAT luciferase)” value [7] was 2.2 nM, the “EC50 [nM], PD-1 & LAG-3 combo reporter assay (NFAT luciferase)” value [8] was 2.2 nM and the “EC50 (read off the curve)” value [9] was about 0.06 nM.
